Experiments:
[1] = molecular target: T1, staphylococcal enterotoxin A (Staphylococcus aureus, strain , UniProt P0A0L2); test: ELISA
T1 construct: source: bought: Toxin Technology

[2] = molecular target: T2, staphylococcal enterotoxin D (Staphylococcus aureus, strain , UniProt P20723); test: ELISA
T2 construct: source: bought: Toxin Technology

[3] = molecular target: T3, staphylococcal enterotoxin C1 (Staphylococcus aureus, strain , UniProt P01553); test: ELISA; details: both partners purified
T3 construct: source: bought: Toxin Technology

[4] = molecular target: T4, staphylococcal enterotoxin E (Staphylococcus aureus, strain , UniProt P12993); test: ELISA
T4 construct: source: bought: Toxin Technology

[5] = molecular target: biotin-labeled staphylococcal enterotoxin E (Staphylococcus aureus, strain , UniProt P12993, biotin (site not stated)); test: SPR; Biacore T200; […]; 25°C; […]; details: both partners purified
[6] = molecular target: biotin-labeled staphylococcal enterotoxin A (Staphylococcus aureus, strain , UniProt P0A0L2, biotin (site not stated)); test: SPR; Biacore T200; […]; 25°C; […]; details: both partners purified

B1: anti-SEA antibody HPK-018_1B6, recombinant IgG1 (antibody, V domains shown)
VH: EVQLVESGGEVKKPGASVKVSCKTSGYTFSSYYMHWVRQAPGQGLEWMGVINPSGGSIKYAQKFQGRVTMTRDTSTTTIYMDLSSLRSDDTAVYYCAYWGADGFDIWGQGTMVTVSS
VL: QSVLTQPPSASGTPGQRVTISCSGSSSNIGSNSVNWYQQVPGTAPKLLTYGNNQRRSGVPDRFSGSKSGTSASLAISGLQSEDEADYSCAVWDDSLSAWVFGGGTKLTVL
notes: source: HEK 293T, transfected, culture supernatant
[1]; one partner purified
  binding result: binds

B2: anti-SEE antibody HPK-016_203, recombinant IgG1 (antibody, V domains shown)
VH: EVQLVESGAEVKKPGESLKISCKGSGNTFTNYWIAWVRQRPGKGLEWMGIIYPGDSDTRYSLSFQGQVTISVDKSINTAYLQWSSLRASDTAIYFCVRHCSGGRCSSAPLDSWGQGTLVTVSS
VL: NFMLTQPPSVSESPGKTVTISCTRSSGSIGTYYVHWYQQRPGSAPTTLIYDDSHRPSGVPDRFSGSVDSSSNSASLIISGLKTEDEADYYCLSHDTTNFVFGGGTKLTVL
notes: also called 203 IgG1
[2]; both partners purified
  binding result: no binding
[1]; both partners purified
  binding result: no binding
[3]
  binding result: binds
[4]; one partner purified
  binding result: binds
[5]
  binding result: binds

B3: anti-SEA antibody 1F3, recombinant IgG1 (antibody, V domains shown)
VH: QVQLVESGTDVKKPGSSVKVSCKTSGGTFGDHGITWVRQAPEKGLEYVGRIIPNPGTAYHAQKFQGRVTITADESTGTAYLELSRLSFDDTAVYYCARGMTGYVGAYDYWGQGTLVTVSS
VL: QSVLTQPPSASGTPGQRVSISCSGSSSNIGSNSVSWYQLLPGTAPKLLIYFSHQRPSGVPDRFSASKSGTSASLAISDLQPEDEADYYCASWDDRLNGPVFGGGTKLTVL
notes: also called 1F3 IgG1; HPK-016_1F3
[1]; both partners purified
  binding result: binds
[4]; both partners purified
  binding result: no binding
[6]
  binding result: binds

B4: anti-SEE antibody HPK-014_1G2, recombinant IgG1 (antibody, V domains shown)
VH: QVQLVESGGGVVPPGGSLRLSCATSGFKFNDYDMHWVRQAPGKGLEWVASIRYHGNKDYYADSVKGRFTISRDNSKNTLSLQMNSLRPEDTAIFYCARDRAQGIVAAAGTSFGYWGQGTLVTVSS
VL: SYELTQPPSVSVSPGQTARITCSADALPKQYVYWYQQKSGQAPVLVMYKDSERPSGIPERFSGSTSGSTVMLTISGVQEEDEAVYYCQSGDTSGFDPDVAFGGGTKLTVL
notes: also called 1G2 IgG1
[2]; both partners purified
  binding result: no binding
[1]; both partners purified
  binding result: no binding
[3]
  binding result: binds
[4]; one partner purified
  binding result: binds
[5]
  binding result: binds

B5: anti-SEE antibody HPK-014_1G2, Fab (Fab, V domains shown)
VH: B4 VH
VL: B4 VL
notes: source: Expi293, purified (LambdaFabSelect agarose)
[4]; both partners purified
  binding result: binds

B6: anti-SEE antibody HPK-014_1G2, recombinant IgE (antibody, V domains shown)
VH: B4 VH
VL: B4 VL
notes: also called 1G2 IgE; anti-SEE IgE 1G2
[4]; both partners purified
  binding result: binds

B7: anti-SED antibody HPK-014_1A4, recombinant IgG1 (antibody, V domains shown)
VH: EVQLLESGGGLVQPGGSLRLSCAASGFNFDSYAMSWVRQAPGKGLEWVSSISSSGGATYYADSVKGRSTISRDNSKNTVSLQMNSLRAEDTAVYYCAKKRRYDAVTGYLFDMWGQGTMVTVSS
VL: DIVMTQSPFSLAVSLGERATMNCKSSQSVLHSSNNENYLAWYQQKPGQPPKLLIYWASTRESGVPDRFSGSGSGTDFTLTISSLQAEDVAVYYCQQFYSPAPYTFGQGTKLEIK
notes: as for B1
[2]; one partner purified
  binding result: binds

B8: anti-SED antibody HPK-018_2D6, recombinant IgG1 (antibody, V domains shown)
VH: QVQLVQSGGGLVQPGRSLRLSCRASGFTFGEYAMSWVRQAPGKGVEWVSFIRSRTYGATTEYAASVKGRFTISRDDSESIVYLQMNSLKTEDTAVYYCTTYCSSTSCQIDYWGQGTLVTVSS
VL: QSALTQPPSASALLGASIKLTCTLSSEHSTYIIEWFQQRPGRSPQYIMDVKSDGSYTKGDGIPDRFMGSSSGADRYLTLSNLQSDDEAEYYCGESHTIDGQVGYVFGTGTKVTVL
notes: as for B1
[2]; one partner purified
  binding result: binds

From publication PMC5380656 (The Journal of Allergy and Clinical Immunology, 2017)
